Data from paper PMC5302815.

Biological target: T1, FinR (Pseudomonas aeruginosa PAO1) (UniProt Q9HYK6)
T1 sequence: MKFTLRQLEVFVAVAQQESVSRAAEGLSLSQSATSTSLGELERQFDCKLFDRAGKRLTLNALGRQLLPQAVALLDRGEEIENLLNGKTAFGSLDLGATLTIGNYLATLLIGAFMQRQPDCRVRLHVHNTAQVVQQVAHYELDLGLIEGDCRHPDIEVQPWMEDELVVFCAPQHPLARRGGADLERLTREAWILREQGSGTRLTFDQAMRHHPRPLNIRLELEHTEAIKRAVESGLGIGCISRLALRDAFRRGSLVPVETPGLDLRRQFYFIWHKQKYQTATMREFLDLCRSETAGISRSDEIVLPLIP
Assay: EMSA
Conditions: EMSA: 20 mM Tris-HCl pH 8.0, 50 mM KCl, 4 mM MgCl2, 0.5 mM EDTA, 0.02 mg/ml BSA, 5 mM DTT, 10% glycerol, 200 ng poly(dI-dC), 3 fmol probe in 25 ul, 25 C …

Sequence | binding
CGATATCGTGTTATCCCATATCCATATTCTGGATAAGCATTATCCAGACAATTCATTTTGCGGATATTTTGGCAACCGATAAAATGCCGCGCAACTGCGTCACGTCTGCTGCTGTTGGTGTGCGCCCGCGTTTTCCTAGGAGTCTTTGATGAGCAATCTGTACACCGAGCGCGTTCTCAGCGTGCACCACTGGAACGACACCCTGTTCAGCT (double strand) [EBI61-EBI70 fragment (with FinR site)] | binds
AGACGCTCTCCTGCTGGGCCACGGCGACGAACACCTCGAGCTGGCGGAGGGTGAATTTCATCCAGGCTTCCTCGTCTAGAGCGAAAGGCCCCGCGACATTTTGCCGTTCCGTCGGCGGGGTTGGCTCGGTTATCCTTGCGCCCCGTCCGCGGGAGCGATGGGAGCCCTCGGCGGCCGGCGGCCGACCGATATCGTGTTATCCC (double strand) [EBI62-EBI69 fragment (without FinR site)] | no binding
